For assay [1], the target named is T1, TbPIP39 wild type (Trypanosoma brucei). Put plainly: SPR; 2 mM citrate, steady state. A general note: SPR reads the build-up and loss of mass on a sensor chip optically.
The target in assay [2] is T1, TbPIP39 wild type. Put plainly: SPR; 2 mM citrate.

The term Kd denotes the equilibrium constant for the complex coming apart. A low value points to tighter binding. For orientation: koff means the rate constant with which the complex falls apart. Higher therefore signals a short-lived complex.

B1: TbPTP1 (enzyme)
chain: MSTAKSFPMAQLSTRAQYSRMQREFVQLQRQENPRNINFTTSLKNRHKNRYLDILANEETIYPPVLKAVGAQPGRYPYINGNLIDLDLPHTFVACQAPVPQGVPDFLETLSEKKVDLVVMLTKLREGGVLKAERYWPEEEEDSLSFPESGHDAIKVTRDAEASYEVDAELDIVRRPLVIHVPGKPMHRVLQVQYVGWPDHGVPESAASFDELLSVIKNCVTTSPILVHCSAGIGRTGTLIGAYAALLHIERGILTDSTVYSIVAAMKQKRFGMVQRLEQYAVIYMTVLGRLGVDISGLVSTLNLKA
For the molecule B1, binding in assay [1] was characterised by a dissociation constant (Kd) of 50.8 µM. Further, in assay [2], the affinity, expressed as Kd, was 42 µM and the koff came to 0.05 s⁻¹.

The values are drawn from publication PMC3798605 (2013).
